Experimental data taken from US20080201790A1, “Method and product for regulating cell responsiveness to external signals” (priority 1993, published 2008).

Target: GST-Ras^V12(GTPγS) agarose (UniProt P01112)
Assay: GST-Ras^V12 agarose pull-down from COS cell lysate, anti-MEKK immunoblot

fold binding relative to GST-Ras^V12(GDP): > 5 fold
B1: MEKK1 (protein encoded by p-MEKK1, transiently expressed in COS cells) (enzyme)
chain: MVTAVPAVFSKLVTMLNASGSTHFTRMRRRLMAIADEVEIAEVIQLGVEDTVDGHQDSLQAVAPTSCLENSSLEHTVHREKTGKGLSATRLSASSEDISDRLAGVSVGLPSSTTTEQPKPAVQTKGRPHSQCLNSSPLSHAQLMFPAPSAPCSSAPSVPDISKHRPQAFVPCKIPSASPQTQRKFSLQFQRNCSEHRDSDQLSPVFTQSRPPPSSNIHRPKPSRPVPGSTSKLGDATKSSMTLDLGSASRCDDSFGGGGNSGNAVIPSDETVFTPVEDKCRLDVNTELNSSIEDLLEASMPSSDTTVTFKSEVAVLSPEKAENDDTYKDDVNHNQKCKEKMEAEEEEALAIAMAMSASQDALPIVPQLQVENGEDIIIIQQDTPETLPGHTKAKQPYREDAEWLKGQQIGLGAFSSCYQAQDVGTGTLMAVKQVTYVRNTSSEQEEVVEALREEIRMMGHLNHPNIIRMLGATCEKSNYNLFIEWMAGGSVAHLLSKYGAFKESVVINYTEQLLRGLSYLHENQIIHRDVKGANLLIDSTGQRLRIADFGAAARLASKGTGAGEFQGQLLGTIAFMAPEVLRGQQYGRSCDVWSVGCAIIEMACAKPPWNAEKHSNHLALIFKIASATTAPSIPSHLSPGLRDVAVRCLELQPQDRPPSRELLKHPVFRTTW
